Experimental data reported in article PMC3651167 (PLoS ONE, 2013).

Target: the molecule itself
Assay: SEC

B1: wild-type hamster PrP 121–231 (domain or fragment)
chain: not shown
stoichiometry N: 8
